The results in this text go back to patent US7625718B2, “SVCT2 transporters expressed in blood brain barrier cells” (XenoPort, Inc., priority 2005, dated 2009).

This data set deals with T1, O=C1O[C@H]([C@@H](O)CO)C(O)=C1O.
T1 construct: expressed in transfected cells; host or cells: HEK-TREx cells, tetracycline-induced
The data set can be described thus: hSVCT2 direct uptake assay in HEK-TREx-hSVCT2 cells (LC-MS-MS). As to conditions: other: HEK-TREx-hSVCT2 cells induced to express hSVCT2. It is filed as cell-based, human. Here is the method: A modified direct uptake assay was developed to determine the ability of test compounds to be transported into HEK-TREx cells induced to over-express hSVCT2. Four concentrations (bracketing the affinity as measured by competition assays) per compound were routinely tested. Non-specific uptake was determined by measuring the uptake into cells not induced to express the transporter (“no tet”).
The direct uptake assays were prepared as follows: Compounds were prepared for assay by diluting a 100 mM stock concentration (in DMSO or water, depending on compound solubility) to the appropriate working concentration. Typically, four concentrations bracketing the IC50 were tested. The highest test concentration for each compound was made in an Eppendorf tube and diluted into HBSS. The samples were robustly vortexed and centrifuged for 10 minutes at 13,200 rpm to spin down any precipitate. The supernatant from these samples (˜150 μl/well) was carefully removed and placed into six wells of row A (cmpd 1: A1-6; cmpd 2: A7-12) or row E (cmpd 3: E1-6; cmpd 4: E7-12) of a 96-well polypropylene “compound” plate. Three additional 2-fold dilutions were made in the subsequent rows (B-D or […]) in HBSS. […]

The term Km denotes the concentration of substrate that gives half-maximal velocity. On to hSVCT2 (Homo sapiens), for which the Km was found to be 14 µM.
